# Substitutions are numbered along the chain they refer to.
# T1: human CD25 (Interleukin-2 receptor alpha chain) (human, UniProt P01589 22-272)
# T1 sequence (looked up): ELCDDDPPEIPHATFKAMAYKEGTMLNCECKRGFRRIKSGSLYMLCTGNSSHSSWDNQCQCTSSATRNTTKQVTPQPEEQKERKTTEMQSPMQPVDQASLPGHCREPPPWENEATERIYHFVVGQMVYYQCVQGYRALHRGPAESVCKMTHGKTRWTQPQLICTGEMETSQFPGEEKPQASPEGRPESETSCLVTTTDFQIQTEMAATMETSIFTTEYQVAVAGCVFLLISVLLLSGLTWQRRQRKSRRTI
# B1: ALD25H2 anti-CD25 antibody (antibody, V domains shown)
# VH: EVQLVESGGGLVQPGRSMKLSCAASGFTFSNHAMAWVRQAPKKGLEWVAYISYDGDNTYYRDSVKGRFTISRDNAKSTLYLQIDSLRSEDTATYYCTTGGNSGYDWGQGVMVTVSS
# VL: DIQMTQSPSFLSASVGDRVTINCKASQNVNKFVNWYQQKLGEAPRRLIYGTNSLQTGIPSRFSGSGSGTDYTLTISSLQPEDVATYFCQQYSSWPWTFGGGTKLELK
# B2: ALD25H4 anti-CD25 antibody (antibody, V domains shown)
# VH: B1 VH with A24V, K76Q, I83M
# VL: B1 VL with A25G, V33L, S92T
# B3: ALD25H1 anti-CD25 antibody (antibody, V domains shown)
# VH: B1 VH with T28P, N31D, E46Q, K76R, Y80F, I83M
# VL: B1 VL with V33L
# B4: 7G7B6 monoclonal antibody (IL-2 non-competitive anti-CD25 antibody) (antibody, V domains shown)
# VH: EVQLVESGGDLVQPRGSLKLSCAASGFTFSSYGMSWVRQTPDKRLELVATINGYGDTTYYPDSVKGRFTISRDNAKNTLYLQMSSLKSEDTAMYFCARDRDYGNSYYYALDYWGQGTSVTVSS
# VL: QIVLSQSPAILSASPGERVTMTCRASSSVSFMHWLQQKPGSSPKPWIYATSNLASGVSARFSGSGSGTSYSLTITRVEAEDAATYYCQQWSSNPPAFGGGTKLEIK
# Target: T1, human CD25 (Interleukin-2 receptor …)
# Experiment: cell-based or functional assay
row,Binder,"IL-2 induced T-cell proliferation, Mean (control = 100)"
1,B1,81.7
2,B2,73
3,B3,78.1
4,B4,55

# Reference: US20220251232A1 (INSERM INSTITUT NATIONAL DE LA SANT ET DE LA RECHERCHE M …, published 2022)
